Experiment: soluble fraction after stress (log2 fold change); higher = more stays soluble; pooled small domains, quantitative proteomics
Conditions: stress: pH 4
Method in brief: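 Custom libraries of small protein domains were pooled and exposed to pH 4. High-throughput quantitative proteomics then measured the log2 fold change in the amount of each domain still soluble, with higher values meaning more stayed soluble. This soluble-fraction fold change stands for aggregation propensity.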

| Sequence | soluble fraction (log2) |
| --- | --- |
| HMGESEKTLELVSQKDALVDEAFFFVRFQALLESNKTKGAQDLLDQSNHLSAAKLLQANAYLDIV | 0.038 |
| HMVNGEFIDRIKVILQENNATRKKDRLTKTRMYQLLQEEGYEGSYSAFTYQVRIIEEELGINNK | ≥ 0.43 |
| HMKEETEMVTIPDVTGKPLTEAANLLREAKLDYLAESTGTSVTKQMPLPGAEVMVNTTVLLYTG | 0.241 |
| HMATPYISMAGIGKSFGPVHALKSVNLTVYPGEIHALLGENGAGKSTLMKVLSGIHEPTKGTITINNIN | ≥ 0.43 |
| HMKKYDIKEAQEIAEINRIPGLVTTSHGRRVYFDPKIMQYVSEEQIVKKYGQKTVKMLDQWYVSNILNK | 0.419 |
| HMNYIEWKNTFKKYLYLLPIKEEKETLAYFDEQYNKLNPKDLDNVENIFSDPIDKAAFVVAFYLEMEDEIK | -0.802 |
| HMVAVSQEEATKMALERVSGASAQDIRIQLEFDDGIQKYEGDIIYNGREYEFEIDANTGTFLEWSEERA | ≥ 0.43 |
| HMSETQDQTTIEIEDMITVGTLAERLSIPVSTLIGELMKNGVMATVNEKIDFDTAQIIVGELKLPIELSKK | -0.269 |
| HMSRKERERSQHRRDILAAGEKIFAQKGYFNATIEEIAREAEFSVGTIYNFFSNKETLYQEIIRSI | -0.43 |
| HMHINLEGLKKIDFRKKIGFLFGSEASGLSNKEVSYANYTLQIPTNINFKSLNLSHSLIIIAQFISSLLNS | 0.126 |
| HMHSEISGGSKDPFRFMPHLGVEDIHAETDRLSGSGVEFIREPDQESWGGWVATFKDPDGNILQLLQL | -0.0468 |
| HMFLSQQDINRANAASVTDMGDIIRRTFERNAAEINGLELSDAEKKDAVKQMATLATTALKTAAGAVNPY | 0.152 |
| HMTNVNSLIGKKAIVIQDIDNLKSTGQVKIGGEIWSAQSESNDIISKDTEVEIVKIDGVKLIVRLVPV | 0.225 |
| HMNILNYIIENENQEVRVDKFLSDTIEDMSRSSVASIIEDGGLLVNDKLQNKKYKLKIGDKVQFTVPDPV | -0.121 |
| HMVFTEEEMLEKIKEYLSTNSYINRRAMETLFNLRQSTALKWLGHFTEIGVLRKEGERNYPVYFLNN | -0.159 |
| HMHFIMEYRIRAYVDELFESAPRTQRAYELKIELTQNLIDKYYALVSEGKSEQDAYNLTVMSIGDVREL | -0.959 |
| HMIVVTSPQVTDERIAEIVAFIEKHGVQAHVSRGTDRTVIGIIGKADPVLAEHLRSMQGVENVIKIS | -0.126 |
| HMNTGFPIILETSDAANLTVGAPIMYRGVEVGKIRNMELNSLGDRVLIHILIGHKYQHLVRQNSEFWFSS | -2.1 |
| HMDAMQAFPNPTVDEIHFVTPTTGRVYNAHGQLVMVLKNAQLVNVRQWSAGQYVIVREDGYAVRWIK | -0.43 |
| HMNNLVGKTKVLKSNTNIYAYKTMSGKFYSYLPNTRVRVLQDLGYINYIEVIATKRRGYVYENVY | -0.165 |
| HMIMGTITKRTNPSGAIVYRAQIRIKKAGYPDFSESRTFSKKAMAVEWLKLREAELEMHPELLFR | 0.0366 |
| HMPSGLFEPIKKSELSIESIDLLKDQIRAFKQADIRITFGFLLDLITKGENPAYVNASKLFEQAWER | -0.241 |
| HMADLKVGFVHRAGSVLERELDDVLEALEMYRSALAIDPSHKPSLDALTRISQLADYREQAAEILEPLPR | -1.04 |
| HMTVDYDKFTKDTVVQHNKFGKGVIIMTSGDGEDKIASIAFQGLGVKRFSLAIAASNLKILGKVNED | -0.195 |
| HMYSLGPKERSIVSFIANRPGSRSGQIAKSLQIPLPTIKRILNGLVENKVIARHGIGAGTNYVVEDQA | 0.0323 |

| Sequence | soluble fraction (log2) |
| --- | --- |
| HMETPEIPGLTPRQVEIMLLVGKGYSNKEIARFLTISPETVKTHLKEVFLRFGLRNRVEAIDFTRQNGL | -0.358 |
| HMRKYKIKEELPDNIYKIIQDNPGIVQKDIYDILGREYQQNISSYIYSMDKNGVIKRDKHGNSYKLYL | -1.01 |
| HMRPRQDRSEETRDRILDAVVELIAERGLAGVSHRAVADRAGVSLSATSYYFGSKAELERAALEEHYRR | -0.992 |
| HMDNPYEVFIPNSYIGQRLDQTLASLFPQFSRSRLQNWLASGNLLVNGKIVKPKTKILGGEQINILDPYN | 0.17 |
| HMGNKWKPIILYLLSNGSMRFGMLNALIPTISKKVLTNQLKELENDGLLLRQSFAEIPPRVEYSLTEKA | 0.165 |
| HMNRIARRELMEQLFADNKITTQEQLQQLLRAEGVEVTQATISRDMRILNIVKVSDQNGNTYYKQMK | 0.0823 |
| HMDEEGDALDREYEDQIRLGDEAFDAEDWTSAQRAYTAALELRPDERYPKNRLRRLASLQEDV | 0.161 |
| HMTIQNSILDEIPNIGASRKRAILEAFGSVHRLRKASPEMISAKVEGIGPEMAQAIHDYLVKHPAT | 0.223 |
| HMNASITVPDVRNLTVKQASEQLLASGFTPIPYAATKDGVGNDIVYAQDPPPSVLARSGDQITITYNPA | 0.198 |
| HMVARPVLQIGSTGADVTAIQARLGVSQTGYFGVLTAAAVTNFQRSNGIAASGKVGATTWAKLMQSA | 0.316 |
| HMINGTITFYDDTTLKGELSSLDTKYLFIIPNGLVMPEKIAVSDIEYFNLDNGITLIQDGISKQTY | -1.11 |
| HMARRKRDIDSDINVKVFEHWLDNLDSASRESFSAFAEETFSPIQVYLYAKFLGYESSIIAVDHWVAVAYP | -0.574 |
| HMIESFQNGLVEHDQFTRPNPWVTPNFSKIEVPSILLSGKHADIDLWKHQNSIENTKKNRPDLFKNYLKKN | -0.357 |
| HMKVLNVLESEIVRLFKQGQQKDNIRDNIYKTHGQHYNNKKSFNVVFGRKWNSLLEQGFLES | 0.241 |
| HMNNLSEELNVTFPRTRDQLLNILHYVQHKYGYISKVSMQEIGNHIKMPVSEIYGTVTSYSEFKI | -0.965 |
| HMEGVSPQTVQEHIRRFIAAEDPASPLSDEALREALGNLGINASRRTVAKYRGEMGIPSSAQRKR | 0.00892 |
| HMTIGLLISKARTNSGLTQAELATRAGTSQAAIARYESDRVSPSVSTLERVLRAAGEELVISSS | -0.0184 |
| HMKEILTNESIIQFVKDKVSEEQIIYKINNSPIDFKLDVNSMVSLAKQNVSSTIIIAMENAMNN | -0.522 |
| HMQEEMIRGDIKLNTVMQTVHLAVGTETERNWQPVETTAKEFELLKLLMENPGVTLKKEYLFHMLI | -0.654 |
| HMREEQELFRKLLEVNGIGPKVAAGMLAGGRPEDVVSAIRREDVAWLTKLPGIGRKTAQRIVLDLKDKLD | 0.165 |
| HMSNWTILIIQGSAHLIDLDSKITEIDGFGSFPTKILQDYNLNEEFEIFDTNVKMVNSVQSDLQSN | -1.97 |
| HMVAGGTVSRKLSIETGLPKRKSLIGSWLDQNSVWHNIISVRHRNGYGDGVNYGFYLRSLLTSEGNLAW | 0.0466 |
| HMAKVDIPHEMVDQRIDEIVEEIKMNLESQNMSLDDYLKRMNQTEAQLRANYEATAAEQVRQGLV | -0.982 |
| HMNIAAVIGQTGVLQDDLKAGEQGTVKADNKLWTAVLAEGEEAVKKEERVDIVAVEGVKLIVRRNI | -1.14 |
| HMYSDERLQTFMELLPFFVEELSNKHVTRYNVWQNYREAYPNGYGRSQFFFHLGQNLEAKKK | -0.0353 |

| Sequence | soluble fraction (log2) |
| --- | --- |
| HMGTRTILGIDPGSRKTGFGIIRLDGSRTHYVSSGVIRIPDTALPERLKIIFASLNEIIQQFQPQEV | 0.107 |
| HMKVTTGIDGLIGEEGVALSDFSGKGKIMVHGEIWNAEFSGEVKKGEVLLVEKANGMTLITRKKN | -0.401 |
| HMSSDEAEYKLLLGQEGVAKSPLRPSGVVDFSGRRLDVQTLGDFIESGETVVVKQVNGHRVLVERK | 0.0409 |
| HMAVNSALVQRNWLIGYRIAEEELQGDNRAEYGASIIKKLAKELTAEYGKGYTKTNLYHFYSFYKT | -0.494 |
| HMDPTVTFIVQVNGRVRDKITLSSDISENEAKNVALESPKITPHISGKSLSRVIFVPGKLINLVV | 0.162 |
| HMIFEEDILKEFRGSLIFITHDRRFLDNIATRIIELDRGKLLSFPGNFSAYKKAKNEQLANEAVENA | -1.17 |
| HMKLIIVPNLVGQSRRSVEISLQQIGLRIDTVYTEFNPDYPKGTVAWQFPKSGDHIKKGMGLQITVSQG | 0.22 |
| HMTEEVIIQNYIGKNFNDVRDELEAKGITVDEPNMKYSDEFKENTIMAQSIKPGQPLKPGGFNSIKFDVS | 0.147 |
| HMTEDIAVRILEFLEDNNGFYALNDKTPSEKIHDLFGVSKKKFKIALGGLYKQRLITVSDAGVTLVK | -0.404 |
| HMPAEGWEASGDTWRYRQKDGSYITNAWVQDTDGKWYYFDESSLMVRNQTTSDGYYVGEDGVWTET | -1.83 |
| HMKLSKLTKPELDEIFRNANFTEEEEKVFWLLARGKSLEQISAKTFLPIATVNRRVKSIKDKIG | 0.34 |
| HMTRQPSAKEHAVLTAVKEGLRRDGRAPTVRALADMTGAASTSTVQRRISALIDLGLLRRTDGTLEVVE | 0.202 |
| HMHPEPDPVLFIDGKEYPYDKLSELDETRVQSMTILPKKSAVKKYGDKYANRSIMEITLKKEN | 0.22 |
| HMSDAQIKASINDLWFKYNLETFAKLNLNVNQGRVLVTGIVQNPEHRLEAIRLVWTVDGVQQVINEIQVAE | -1.23 |
| HMSKTQYTFKEVGSQFQLFAPSTKHTIMISADHPKYGWLTNQDQGRVINVYDTGKMTSSQDYYGLYKEVT | -0.589 |
| HMAALTADEAKQIALKHAGVAESDVQRLKVEQDRDDGRLLYEVEWDVGRTEYSYEIDANTGDILNYEKDV | -0.361 |
| HMSSPTAKATGSSVNIRKSASTGAAVLKRVEKGTVLEAVSISDGWVKVKYSGVTGYVSADYVKVSGL | 0.154 |
| HMPPFDDILAEYYEPLYRHVRRMVVSHDDAKDVMQEAMLRIFQGLDGLKDPSAVRTWVWRIATNEALRH | -1.76 |
| HMYELSDTEWKIIEQVGLGASNKEIAASLHFSEGTIRNYLSVILDKLSLRDRTQLAILYVKMN | -0.122 |
| HMAIGERIRFLRTLRRMTQKELGLAAGFPEKNASIRMAQYENGTRTPKAELTAVLAEILKVSPQALTV | 0.173 |
| HMEYKNYYDSPVGRLELLSDGVSLTAVLFENQQGDGTREENTSLAIFKEATQWLDAYFKGDNPEITIPL | 0.33 |
| HMSQSIGQEKALSIALADAGVQKENALGLEVKGEYDDGQLLYEVEFRAGGVEYEYEVRASDGRIVKAERD | 0.0913 |
| HMAGTPAVVKWFNPTKGFGFVTPREAGSDALLHASVLAKQGKRWLQEGTVVEVVLEEGPKGLVVSEVLTIE | -0.469 |
| HMDLMQRVIIVRPVMQGDYLTRAHLGLQTLSRNGGGGFTDIDDLVGRRAKKSLRAGLVVHNRHL | 0.124 |
| HMTFNEPSPKEIMDYSLSRGYKVDADAFIDFYRGKAKAYGKEGLWLDGRGRLVKDWRAKLRVVWFKDENKL | -1.09 |
